# Results published in publication PMC5913134, “The IL-33-PIN1-IRAK-M axis is critical for type 2 immunity in IL-33-induced allergic airway inflammation” (Nature Communications, 2018).
# B1: IL-33: Recombinant mouse IL-33 purchased from BioLegend (protein, UniProt Q8BVZ5 1-266, looked up)
# Interleukin-33: MRPRMKYSNSKISPAKFSSTAGEALVPPCKIRRSQQKTKEFCHVYCMRLRSGLTIRKETSYFRKEPTKRYSLKSGTKHEENFSAYPRDSRKRSLLGSIQAFAASVDTLSIQGTSLLTQSPASLSTYNDQSVSFVLENGCYVINVDDSGKDQEQDQVLLRYYESPCPASQSGDGVDGKKLMVNMSPIKDTDIWLHANDKDYSVELQRGDVSPPEQAFFVLHKKSSDFVSFECKNLPGTYIGVKDNQLALVEEKDESCNNIMFKLSKI
# What was measured:
# PIN1 = PIN1 enzymatic (PPIase) activity in DC2.4 cells; assay type: cell-based, C57BL/6; settings: IL-33 100 ng/ml, 5 min, substrate Suc-Ala-Glu-Pro-Phe-pNa
# Method: DC2.4 cell line were either treated with 100ng/ml IL-33 for indicate time (0, 5 and 15 min). The cells were harvested and homogenized in a reaction buffer containing 100 mM NaCl, 50 mM HEPES, pH 7, 2 mM DTT, and 0.04 mg/ml BSA. The lysates were cleared by centrifugation at 12,000 g for 10 minutes (4 °C). PPIase activity was measured using equal amounts of […] cytoplasmic lysates and α-chymotrypsin using a synthetic tetrapeptide substrate Suc-Ala-Glu-Pro-Phe-pNa (Peptides International). Absorption at 390 nm was measured using an Ultrospec 2000 spectrophotometer. The results are expressed as the mean of 3 measurements from a single experiment and are representative of 3 independent experiments.
# PIN1-IRAK-M interaction = assay: GST-PIN1 pulldown of IRAK-M from DC2.4 cell extracts; assay type: cell-based, C57BL/6; settings: 100 ng/ml, 1 h, DC2.4 extracts
# Method: Fig. 2 IL-33 induces IRAK-M phosphorylation and binding to PIN1. a GST PIN1 pulldown assay with DC2.4 cell extracts either non-treated or treated with IL-33 (100 ng/ml) or LPS (100ng/ml) for 1 h. […] The cells were washed with fresh medium and treated with 100 ng/ml IL-33 for the indicated times prior to IRAK-M immunoprecipitation. d DC2.4 cells stably expressing IRAK-M were treated with IL-33 and at the indicated time points were subjected to CO-IP using anti-PIN1 antibody and blotted for IRAK-M. e HEK293 cells were transfected with different IRAK-M constructs expressing the N’ terminal domain (aa1-220), the middle portion of the protein (aa220-440) or the C’ terminal domain (aa 440-630), and then treated with IL-33, followed by CO-IP for PIN1. f DC2.4 cells stably expressing IRAK-M were treated with IL-33 and subjected to GST or GST-PIN1 pull-down.
# Glutathione-Sepharose 4B (Amersham) coupled with glutathione S-transferase (GST) or GST-PIN1 and washed with 150 mM NaCl, 20 mM Tris-HCl (pH 8), 1 mM MgCl2, and 0.1% NP-40 was mixed with 1 mg of total protein extract for 3 h at 4 °C. The beads were then washed extensively, and the protein was eluted with 20 mM reduced glutathione. The proteins were resolved by SDS-PAGE and visualized by Western analysis or autoradiography. […]
# [1] = system: Il6, Csf3, Cxcl2 and Ccl5 expression in DC2.4 cells; assay: qRT-PCR of Il6, Csf3, Cxcl2 and Ccl5 in DC2.4 cells; assay type: cell-based, C57BL/6; settings: IL-33, pLKO control DC2.4 cells
# Method: Also as indicated, some cells were pretreated for 3 days with 5 μM or 10 μM of ATRA before IL-33 induction. e Relative gene expression of Il6, Csf3, Cxcl2 and Ccl5 in the different samples as in d normalized to actin. f IRAK-M was stably expressed in pLKO or TET on shPin1 expressing cells, followed by induction with IL-33, before western blot to examine protein expression of IRAK-M, PIN1 and tubulin as well as g qRT-PCR to determine the relative gene expression for Il6, Csf3, Cxcl2 and Ccl5 in the different samples.
# SYBR Green PCR Master Mix (Applied Biosystems, Foster City, CA) was used for two-step real-time RT-PCR analysis on an Applied Biosystems StepOnePlus Real Time PCR instrument. […] Expression value of the targeted gene in a given sample was normalized to the corresponding expression of Actin. The 2^–ΔΔCt method was used to calculate relative expression of the targeted genes.
# [2] = system: mouse embryonic fibroblasts (MEFs); assay: IL-6 secretion by MEFs; assay type: cell-based; settings: PIN1 KO MEFs, all IL-33 concentrations tested, 24 h
# Method: Fig. 1 PIN1 is required for IL-33 to induces TH2 polarization and allergic inflammation. a 5 and15 min after IL-33 treatment of DC2.4 cells, cells were extracted and PIN1 activity was measured as previously described. Inset: PIN1 was immune precipitated and immune blotted for PIN1 or Ser71 phosphorylation as indicated. b WT and PIN1 KO MEF’s were treated with different concentrations of IL-33 for 24 h and the medium was measured for IL-6 secretion. c WT and PIN1 KO mice were treated with 200 ng/mice/day for 4 consecutive days and the BALF was examined for IL-4, 5, 6 and 13 by ELISA. d H&E staining representative of lungs from WT and PIN1 KO mice treated with IL-33 (n = 4). Scale bar = 50 µm. e Total cell number in the BALF of WT and PIN1 KO mice was measured using HEMAVET multispecies hematology analyzer. f Eosinophil cell number in the BALF of WT and PIN1 KO mice was measured using HEMAVET multispecies hematology analyzer. g Representative H&E staining of lung sections from WT and PIN1 KO mice after OVA-induced allergic asthma (n = 4). Scale bar = 50 µm. h IL-4, -5, -13 and IL-33 levels in the BALF of WT and PIN1 KO mice after OVA-induced allergic asthma. […] The data were analyzed by a Student’s two-tailed t test unless stated otherwise, and the values are reported as mean ± standard errors of the means (SEM). *- statistical significance (P < 0.05), **- significance (P < 0.01)
# IRAK-M = IRAK-M protein levels in BMDCs; assay type: cell-based, mouse; settings: BMDC from WT and PIN1 KO mice, IL-33, time-dependent
molecule,measurement,setting,value
B1,PIN1 activity,PIN1,dramatically elevated PIN1 activity
same,PIN1-IRAK-M interaction,PIN1-IRAK-M interaction,specific interaction
same,expression of the four target genes,[1],upregulated
same,IL-6 secretion in response to IL-33,[2],abolished IL-6 secretion
same,IRAK-M protein levels,IRAK-M,"increased IRAK-M protein levels in WT, but not PIN1 KO cells"
